The results in this text go back to PMC6599006 (Scientific Reports, 2019).

In the assay the target is T1, CT peptide (residues 367–393 of human p53) labeled with FAM at the N-terminus (human, UniProt P04637 367-393, FAM at the N-terminus).
T1 construct: p53, human, residues 367-393 (C-terminal domain); also called CT peptide of p53; monomeric CT domain of p53; source: synthetic peptide, without caps, at least 95% purity (Toray Research Center Inc.)
Description: fluorescence polarisation; fluorescence anisotropy; nonlabeled peptide titrated into 5 nM FAM-labeled CT peptide; 25 °C; 20 mM HEPES, 0.5 mM EDTA, 1 mM DTT, 0.2 mg/mL BSA, pH 7.9; in the absence of salt; apparent dissociation constant, one by one binding fit. To be noted: both partners purified. Background: In fluorescence polarisation assays a small probe gives low polarisation when free and higher when bound to something large.

T1 sequence (P04637 367-393): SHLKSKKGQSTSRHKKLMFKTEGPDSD

B1: DP1 (peptide)
peptide: EHEEIFMESKGWR
notes: designed with the Miyazawa-Jernigan potential, one by one residue design, 13 residues; also called designed peptide DP1; source: synthetic peptide, without caps, at least 95% purity (Toray Research Center Inc.)
For the molecule B1, the Kd came to 60 µM.

B2: DP5 (peptide)
peptide: EEEEDNNDDDEEE
notes: designed with the Miyazawa-Jernigan potential, one by three residue design, 13 residues; also called designed peptide DP5; source: synthetic peptide, without caps, at least 95% purity (Toray Research Center Inc.)
On to B2, for which the Kd stood at 3.2 µM.

B3: DP2 (peptide)
peptide: EDEEGNDSDEHEE
notes: designed with the Miyazawa-Jernigan potential, one by one residue design, 13 residues; also called designed peptide DP2; source: synthetic peptide, without caps, at least 95% purity (Toray Research Center Inc.)
B3: the Kd stood at 23 µM.

B4: DP3 (peptide)
peptide: DEHEEIFMESKGWRDR
notes: designed with the Miyazawa-Jernigan potential, one by one residue design, 16 residues; also called designed peptide DP3; source: synthetic peptide, without caps, at least 95% purity (Toray Research Center Inc.)
Turning to B4, the Kd came out at 550 µM.

B5: DP4 (peptide)
peptide: DHIEDEEGNDSDEHEE
notes: designed with the Miyazawa-Jernigan potential, one by one residue design, 16 residues; also called designed peptide DP4; source: synthetic peptide, without caps, at least 95% purity (Toray Research Center Inc.)
On to B5, for which the Kd came out at 9 µM.

B6: DP6 (peptide)
peptide: EEEEEDNNDDDEEEWF
notes: designed with the Miyazawa-Jernigan potential, one by three residue design, 16 residues; designed target is residues 369-384 of p53; also called designed peptide DP6; source: synthetic peptide, without caps, at least 95% purity (Toray Research Center Inc.)
For B6, the Kd was found to be 1.2 µM.
